From patent US20240270821A1, “GIP/GLP1/GCG TRI-RECEPTOR AGONISTS AND USES THEREOF” (priority 2023, published 2024)

T1: human GIP receptor (human) (UniProt P48546)
T1 sequence (looked up): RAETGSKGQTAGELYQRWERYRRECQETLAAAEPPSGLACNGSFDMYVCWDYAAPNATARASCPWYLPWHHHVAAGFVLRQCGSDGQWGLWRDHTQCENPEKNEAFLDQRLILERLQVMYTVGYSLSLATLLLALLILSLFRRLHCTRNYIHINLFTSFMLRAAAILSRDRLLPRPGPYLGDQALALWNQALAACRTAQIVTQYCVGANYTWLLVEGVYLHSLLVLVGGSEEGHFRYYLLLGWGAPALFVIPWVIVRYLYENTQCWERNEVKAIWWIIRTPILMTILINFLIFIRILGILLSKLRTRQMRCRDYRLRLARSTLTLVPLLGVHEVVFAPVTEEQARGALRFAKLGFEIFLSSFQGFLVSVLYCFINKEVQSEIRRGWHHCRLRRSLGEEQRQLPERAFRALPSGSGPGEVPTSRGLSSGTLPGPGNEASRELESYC

B1: Example 825 (peptide)
chain: YXQGTFTSDXSQXLDKKAQXAFIEYLLEAGPSSXAPPPSGT
modifications: synthetic construct; SITE 2: note = 2-Aminoisobutyric Acid; SITE 10: note = 3-(4-Pyridyl)-L-alanine; SITE 13: note = alpha-methyl-leucine; SITE 17: note = Lysine is chemically modified through conjugation of the epsilon-amino group of the Lysine side chain with (2-[2-(2-Amino-ethoxy)-ethoxy]-acetyl)
B2: Example 804 (peptide)
chain: YXQGTFTSDFSXXLDKKAQXAFIEYLIEXSPSSGAPPPSGS
modifications: synthetic construct; SITE 2: note = 2-Aminoisobutyric Acid; SITE 12: note = L-ornithine; SITE 13: note = alpha-methyl-leucine; SITE 17: note = Lysine is chemically modified through conjugation of the epsilon-amino group of the Lysine side chain with (2-[2-(2-Amino-ethoxy)-ethoxy]-acetyl)-(gamma-Glu)
B3: Example 907 (peptide)
chain: YXQGTFTSDXSKXLDKKAQXAFIEYLIEXGPSSGAPPPSGS
modifications: synthetic construct; SITE 2: note = 2-Aminoisobutyric Acid; SITE 10: note = 3-(4-Pyridyl)-L-alanine; SITE 13: note = alpha-methyl-leucine; SITE 17: note = Lysine is chemically modified through conjugation of the epsilon-amino group of the Lysine side chain with (gamma-Glu)2-CO-(CH2)16-CO2H; SITE 20:
B4: Example 916 (peptide)
chain: YXQGTFTSDXSKXLDKKAQXAFIEXLIEXGPSSGAPPPSGS
modifications: Aib, 4Pal, αMeL, Me4Pal; lysine acylated C18 diacid; amide; synthetic construct; SITE 2: note = 2-Aminoisobutyric Acid; SITE 10: note = 3-(4-Pyridyl)-L-alanine; SITE 13: note = alpha-methyl-leucine; SITE 17: note = Lysine is chemically modified through conjugation of the epsilon-amino group of the Lysine side chain with (2-[2-(2-Amino-ethoxy)-ethoxy]-acetyl)
B5: Example 862 (SEQ ID NO: 868) (peptide)
chain: YXQGTFTSDFSQXLDKKAQXAFIEYLIEXGPSSGAPPPSGS
modifications: not fully specified; synthetic construct; SITE 2: note = 2-Aminoisobutyric Acid; SITE 13: note = alpha-methyl-leucine; SITE 17: note = Lysine is chemically modified through conjugation of the epsilon-amino group of the Lysine side chain with (gamma-Glu)3-CO-(CH2)16-CO2H; SITE 20: note = 3-(4-Pyridyl)-L-alanine; SITE 29:
B6: Example 913 (peptide)
chain: YXQGTFTSDFSQXLDKKAQXAFIEXLIEXGPSSGAPPPSGS
modifications: non-natural residues; acylated Lys C18 diacid; C-term amide; synthetic construct; SITE 2: note = 2-Aminoisobutyric Acid; SITE 13: note = alpha-methyl-leucine; SITE 17: note = Lysine is chemically modified through conjugation of the epsilon-amino group of the Lysine side chain with (2-[2-(2-Amino-ethoxy)-ethoxy]-acetyl)-(gamma-Glu)-CO-(CH2) 16-CO2H; SITE 20: n
B7: Example 805 (peptide)
chain: YXQGTFTSDFSKXLDKKAQXAFIEYLIEXSPSSGAPPPSGS
modifications: synthetic construct; SITE 2: note = 2-Aminoisobutyric Acid; SITE 13: note = alpha-methyl-leucine; SITE 17: note = Lysine is chemically modified through conjugation of the epsilon-amino group of the Lysine side chain with (2-[2-(2-Amino-ethoxy)-ethoxy]-acetyl)-(gamma-Glu)-CO-(CH2) 16-CO2H; SITE 20: n
B8: Example 806 (peptide)
chain: YXQGTFTSDFSRXLDKKAQXAFIEYLIEXSPSSGAPPPSGS
modifications: synthetic construct; SITE 2: note = 2-Aminoisobutyric Acid; SITE 13: note = alpha-methyl-leucine; SITE 17: note = Lysine is chemically modified through conjugation of the epsilon-amino group of the Lysine side chain with (2-[2-(2-Amino-ethoxy)-ethoxy]-acetyl)-(gamma-Glu)-CO-(CH2) 16-CO2H; SITE 20: n
B9: Example 876 (SEQ ID NO: 882) (peptide)
chain: YXQGTFTSDFSQXLDKKAQXAFIEYLIAGGPSSGAPPPSGS
modifications: not fully specified; synthetic construct; SITE 2: note = 2-Aminoisobutyric Acid; SITE 13: note = alpha-methyl-leucine; SITE 17: note = Lysine is chemically modified through conjugation of the epsilon-amino group of the Lysine side chain with (gamma-Glu)2-CO-(CH2)16-CO2H; SITE 20: note = 3-(4-Pyridyl)-L-alanine; SITE 41:
B10: Example 912 (peptide)
chain: YXQGTFTSDFSKXLDKKAQXAFIEXLIEXGPSSGAPPPSGS
modifications: non-natural residues, AEEA-γGlu-C18 diacid lysine acylation, C-terminal amide; synthetic construct; SITE 2: note = 2-Aminoisobutyric Acid; SITE 13: note = alpha-methyl-leucine; SITE 17: note = Lysine is chemically modified through conjugation of the epsilon-amino group of the Lysine side chain with (2-[2-(2-Amino-ethoxy)-ethoxy]-acetyl)-(gamma-Glu)-CO-(CH2) 16-CO2H; SITE 20: n
B11: Example 875 (SEQ ID NO: 881) (peptide)
chain: YXQGTFTSDFSQXLDKKAQXAFIEYLIAGGPSSGAPPPSGS
modifications: synthetic construct; SITE 2: note = 2-Aminoisobutyric Acid; SITE 13: note = alpha-methyl-leucine; SITE 17: note = Lysine is chemically modified through conjugation of the epsilon-amino group of the Lysine side chain with (2-[2-(2-Amino-ethoxy)-ethoxy]-acetyl)-(gamma-Glu)-CO-(CH2) 16-CO2H; SITE 20: n
B12: Example 908 (peptide)
chain: YXQGTFTSDXSKXLDKKAQXAFIEYLIEGGPSSGAPPPSGS
modifications: synthetic construct; SITE 2: note = 2-Aminoisobutyric Acid; SITE 10: note = 3-(4-Pyridyl)-L-alanine; SITE 13: note = alpha-methyl-leucine; SITE 17: note = Lysine is chemically modified through conjugation of the epsilon-amino group of the Lysine side chain with (2-[2-(2-Amino-ethoxy)-ethoxy]-acetyl)
B13: Example 820 (peptide)
chain: YXQGTFTSDXSQXLDKKAQXAFIEYLLEAGPSSGAPPPSGS
modifications: synthetic construct; SITE 2: note = 2-Aminoisobutyric Acid; SITE 10: note = 3-(4-Pyridyl)-L-alanine; SITE 13: note = alpha-methyl-leucine; SITE 17: note = Lysine is chemically modified through conjugation of the epsilon-amino group of the Lysine side chain with (2-[2-(2-Amino-ethoxy)-ethoxy]-acetyl)
B14: Example 77 (peptide)
chain: YXQGTFTSDFSRXLDKKAQXAFIEYLLAGGPSSGAPPPSGS
modifications: synthetic construct; SITE 2: note = 2-Aminoisobutyric Acid; SITE 13: note = alpha-methyl-leucine; SITE 17: note = Lysine is chemically modified through conjugation of the epsilon-amino group of the Lysine side chain with (2-[2-(2-Amino-ethoxy)-ethoxy]-acetyl)-(gamma-Glu)-CO-(CH2) 18-CO2H; SITE 20: n
B15: Example 914 (peptide)
chain: YXQGTFTSDXSKXLDKKAQXAFIEXLIEXGPSSGAPPPSGS
modifications: Aib, 4Pal, αMeL, Me4Pal; acylated Lys; C-terminal amide; synthetic construct; SITE 2: note = 2-Aminoisobutyric Acid; SITE 10: note = 3-(4-Pyridyl)-L-alanine; SITE 13: note = alpha-methyl-leucine; SITE 17: note = Lysine is chemically modified through conjugation of the epsilon-amino group of the Lysine side chain with (2-[2-(2-Amino-ethoxy)-ethoxy]-acetyl)
B16: Example 915 (peptide)
chain: YXQGTFTSDXSKXLDKKAQXAFIEYLIEXGPSSGAPPPSGS
modifications: non-natural residues, acylated Lys, C-terminal amide; synthetic construct; SITE 2: note = 2-Aminoisobutyric Acid; SITE 10: note = 3-(4-Pyridyl)-L-alanine; SITE 13: note = alpha-methyl-leucine; SITE 17: note = Lysine is chemically modified through conjugation of the epsilon-amino group of the Lysine side chain with (2-[2-(2-Amino-ethoxy)-ethoxy]-acetyl)

Assays:
Assay in all cases: cell-based or functional assay
hGLP-1R = hGLP-1R (Homo sapiens, UniProt P43220)
Chain of hGLP-1R (P43220 24-463): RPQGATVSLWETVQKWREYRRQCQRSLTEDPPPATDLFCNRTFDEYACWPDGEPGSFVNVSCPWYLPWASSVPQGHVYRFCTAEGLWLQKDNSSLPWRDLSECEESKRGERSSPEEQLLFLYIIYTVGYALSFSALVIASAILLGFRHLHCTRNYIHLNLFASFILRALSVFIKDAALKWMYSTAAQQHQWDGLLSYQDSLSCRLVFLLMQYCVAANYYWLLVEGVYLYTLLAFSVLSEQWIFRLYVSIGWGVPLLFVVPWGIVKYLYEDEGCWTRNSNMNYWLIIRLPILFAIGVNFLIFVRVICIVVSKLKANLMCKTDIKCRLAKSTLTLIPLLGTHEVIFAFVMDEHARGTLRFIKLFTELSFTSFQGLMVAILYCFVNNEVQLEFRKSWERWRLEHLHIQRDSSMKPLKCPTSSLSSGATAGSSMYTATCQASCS

[1] = target: human glucagon receptor (human) (UniProt P47871)
Chain of human glucagon receptor (human) (P47871 26-477): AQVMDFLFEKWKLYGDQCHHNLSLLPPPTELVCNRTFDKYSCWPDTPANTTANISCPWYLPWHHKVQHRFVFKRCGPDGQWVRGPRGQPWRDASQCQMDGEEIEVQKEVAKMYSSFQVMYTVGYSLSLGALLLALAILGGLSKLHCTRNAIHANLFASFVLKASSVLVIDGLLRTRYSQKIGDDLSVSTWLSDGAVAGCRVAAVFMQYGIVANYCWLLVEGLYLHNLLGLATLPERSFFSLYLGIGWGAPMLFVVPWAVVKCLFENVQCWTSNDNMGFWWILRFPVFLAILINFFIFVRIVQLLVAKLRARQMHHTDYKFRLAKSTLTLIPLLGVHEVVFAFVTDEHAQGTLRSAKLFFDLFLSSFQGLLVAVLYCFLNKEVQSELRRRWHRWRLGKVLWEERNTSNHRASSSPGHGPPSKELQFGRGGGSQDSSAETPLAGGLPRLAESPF

[2] = target: T1, human GIP receptor (human)

Binder | Relative cAMP EC50 (hGLP-1R) [nM] | cAMP Rel EC50 (1% HSA) (hGLP-1R) [nM] | Relative cAMP EC50 [1] [nM] | cAMP Rel EC50 (1% HSA) [1] [nM] | Relative cAMP EC50 [2] [nM] | cAMP Rel EC50 (1% HSA) [2] [nM] | cAMP Rel EC50 (hGLP-1R) [nM] | cAMP Rel EC50 [1] [nM] | cAMP Rel EC50 [2] [nM] | cAMP Rel EC50, nM (in the presence of 1% HSA) (hGLP-1R) [nM] | cAMP Rel EC50, nM (in the presence of 1% HSA) [1] [nM] | cAMP Rel EC50, nM (in the presence of 1% HSA) [2] [nM]
B1 | 3.4 | 303 | 5.53 | 1810 | 0.12 | 39.3 |  |  |  |  |  | 
B2 | 0.915 | 161 | 11.5 | 2310 | 0.0751 | 17.6 |  |  |  |  |  | 
B3 | 1.15 | 123 | 5.79 | 1210 | 0.103 | 8.86 |  |  |  |  |  | 
B4 |  | 166 |  | 158 |  | 4.78 |  |  |  |  |  | 
B5 |  |  |  |  |  |  | 201 | 1110 | 12.4 |  |  | 
B6 |  | 258 |  | 1140 |  | 5.62 |  |  |  |  |  | 
B7 | 0.715 | 146 | 3.97 | 1210 | 0.0875 | 13 |  |  |  |  |  | 
B8 | 0.706 | 128 | 8.25 | 2760 | 0.124 | 15.1 |  |  |  |  |  | 
B9 |  |  |  |  |  |  | 70 | 940 | 7.94 |  |  | 
B10 |  | 59.6 |  | 955 |  | 6.15 |  |  |  |  |  | 
B11 |  |  |  |  |  |  | 78.6 | 689 | 13.8 |  |  | 
B12 | 1.2 | 174 | 8.11 | 980 | 0.246 | 26.7 |  |  |  |  |  | 
B13 | 2.78 | 299 | 6.83 | 1270 | 0.121 | 17.5 |  |  |  |  |  | 
B14 | 1.85 |  | 15.3 |  | 0.168 |  |  |  |  | 339 | 2610 | 37.9
B15 |  | 91.7 |  | 983 |  | 5.94 |  |  |  |  |  | 
B16 |  | 226 |  | 174 |  | 15.3 |  |  |  |  |  | 
